Numbered stars: 1 amine (or outer) side, 2 acyl side, 3 side chain; on linkers, the order of the positions; unused ones are H or OH. Square brackets hold non-standard residues; d marks the D form. Side chains are listed from the residue outwards. Ends that are not written are not given here. * marks the point of attachment. γGlu = O=C(O)[C@H](CCC(=O)[*:2])N[*:1]; Desaminohistidyl = O=C(CCc1c[nH]cn1)*; Palmitoyl = CCCCCCCCCCCCCCCC(=O)*; Aib = CC(C)(N)C(=O)O
B1: peptide of SEQ ID NO: 22 (peptide)
peptide: H[Aib]QGTFTSDK([γGlu-γGlu-Palmitoyl])SKYLD[Aib]RAAQDFVQWLMDGRG-NH2
modifications: N-terminus assumed
SMILES: CCCCCCCCCCCCCCCC(=O)N[C@@H](CCC(=O)N[C@@H](CCC(=O)NCCCC[C@H](NC(=O)[C@H](CC(=O)O)NC(=O)[C@H](CO)NC(=O)[C@@H](NC(=O)[C@H](Cc1ccccc1)NC(=O)[C@@H](NC(=O)CNC(=O)[C@H](CCC(N)=O)NC(=O)C(C)(C)NC(=O)[C@@H](N)Cc1c[nH]cn1)[C@@H](C)O)[C@@H](C)O)C(=O)N[C@@H](CO)C(=O)N[C@@H](CCCCN)C(=O)N[C@@H](Cc1ccc(O)cc1)C(=O)N[C@@H](CC(C)C)C(=O)N[C@@H](CC(=O)O)C(=O)NC(C)(C)C(=O)N[C@@H](CCCNC(=N)N)C(=O)N[C@@H](C)C(=O)N[C@@H](C)C(=O)N[C@@H](CCC(N)=O)C(=O)N[C@@H](CC(=O)O)C(=O)N[C@@H](Cc1ccccc1)C(=O)N[C@H](C(=O)N[C@@H](CCC(N)=O)C(=O)N[C@@H](Cc1c[nH]c2ccccc12)C(=O)N[C@@H](CC(C)C)C(=O)N[C@@H](CCSC)C(=O)N[C@@H](CC(=O)O)C(=O)NCC(=O)N[C@@H](CCCNC(=N)N)C(=O)NCC(N)=O)C(C)C)C(=O)O)C(=O)O
B2: peptide of SEQ ID NO: 25 (peptide)
peptide: H[Aib]QGTFTSDK([γGlu-γGlu-Palmitoyl])SKYLD[Aib]RAAQDFVQWLKDGRP-NH2
modifications: N-terminus assumed
SMILES: CCCCCCCCCCCCCCCC(=O)N[C@@H](CCC(=O)N[C@@H](CCC(=O)NCCCC[C@H](NC(=O)[C@H](CC(=O)O)NC(=O)[C@H](CO)NC(=O)[C@@H](NC(=O)[C@H](Cc1ccccc1)NC(=O)[C@@H](NC(=O)CNC(=O)[C@H](CCC(N)=O)NC(=O)C(C)(C)NC(=O)[C@@H](N)Cc1c[nH]cn1)[C@@H](C)O)[C@@H](C)O)C(=O)N[C@@H](CO)C(=O)N[C@@H](CCCCN)C(=O)N[C@@H](Cc1ccc(O)cc1)C(=O)N[C@@H](CC(C)C)C(=O)N[C@@H](CC(=O)O)C(=O)NC(C)(C)C(=O)N[C@@H](CCCNC(=N)N)C(=O)N[C@@H](C)C(=O)N[C@@H](C)C(=O)N[C@@H](CCC(N)=O)C(=O)N[C@@H](CC(=O)O)C(=O)N[C@@H](Cc1ccccc1)C(=O)N[C@H](C(=O)N[C@@H](CCC(N)=O)C(=O)N[C@@H](Cc1c[nH]c2ccccc12)C(=O)N[C@@H](CC(C)C)C(=O)N[C@@H](CCCCN)C(=O)N[C@@H](CC(=O)O)C(=O)NCC(=O)N[C@@H](CCCNC(=N)N)C(=O)N1CCC[C@H]1C(N)=O)C(C)C)C(=O)O)C(=O)O
B3: peptide of SEQ ID NO: 21 (peptide)
peptide: Ac-H[dS]QGTFTSDK([γGlu-Palmitoyl])SKYLDERAAQDFVQWLLDT-NH2
SMILES: CCCCCCCCCCCCCCCC(=O)N[C@@H](CCC(=O)NCCCC[C@H](NC(=O)[C@H](CC(=O)O)NC(=O)[C@H](CO)NC(=O)[C@@H](NC(=O)[C@H](Cc1ccccc1)NC(=O)[C@@H](NC(=O)CNC(=O)[C@H](CCC(N)=O)NC(=O)[C@@H](CO)NC(=O)[C@H](Cc1c[nH]cn1)NC(C)=O)[C@@H](C)O)[C@@H](C)O)C(=O)N[C@@H](CO)C(=O)N[C@@H](CCCCN)C(=O)N[C@@H](Cc1ccc(O)cc1)C(=O)N[C@@H](CC(C)C)C(=O)N[C@@H](CC(=O)O)C(=O)N[C@@H](CCC(=O)O)C(=O)N[C@@H](CCCNC(=N)N)C(=O)N[C@@H](C)C(=O)N[C@@H](C)C(=O)N[C@@H](CCC(N)=O)C(=O)N[C@@H](CC(=O)O)C(=O)N[C@@H](Cc1ccccc1)C(=O)N[C@H](C(=O)N[C@@H](CCC(N)=O)C(=O)N[C@@H](Cc1c[nH]c2ccccc12)C(=O)N[C@@H](CC(C)C)C(=O)N[C@@H](CC(C)C)C(=O)N[C@@H](CC(=O)O)C(=O)N[C@H](C(N)=O)[C@@H](C)O)C(C)C)C(=O)O
B4: peptide of SEQ ID NO: 23 (peptide)
peptide: H[Aib]QGTFTSDK([γGlu-γGlu-Palmitoyl])SKYLD[Aib]RAAQDFVQWLMKGRG-NH2
modifications: N-terminus assumed
SMILES: CCCCCCCCCCCCCCCC(=O)N[C@@H](CCC(=O)N[C@@H](CCC(=O)NCCCC[C@H](NC(=O)[C@H](CC(=O)O)NC(=O)[C@H](CO)NC(=O)[C@@H](NC(=O)[C@H](Cc1ccccc1)NC(=O)[C@@H](NC(=O)CNC(=O)[C@H](CCC(N)=O)NC(=O)C(C)(C)NC(=O)[C@@H](N)Cc1c[nH]cn1)[C@@H](C)O)[C@@H](C)O)C(=O)N[C@@H](CO)C(=O)N[C@@H](CCCCN)C(=O)N[C@@H](Cc1ccc(O)cc1)C(=O)N[C@@H](CC(C)C)C(=O)N[C@@H](CC(=O)O)C(=O)NC(C)(C)C(=O)N[C@@H](CCCNC(=N)N)C(=O)N[C@@H](C)C(=O)N[C@@H](C)C(=O)N[C@@H](CCC(N)=O)C(=O)N[C@@H](CC(=O)O)C(=O)N[C@@H](Cc1ccccc1)C(=O)N[C@H](C(=O)N[C@@H](CCC(N)=O)C(=O)N[C@@H](Cc1c[nH]c2ccccc12)C(=O)N[C@@H](CC(C)C)C(=O)N[C@@H](CCSC)C(=O)N[C@@H](CCCCN)C(=O)NCC(=O)N[C@@H](CCCNC(=N)N)C(=O)NCC(N)=O)C(C)C)C(=O)O)C(=O)O
B5: peptide of SEQ ID NO: 24 (peptide)
peptide: H[Aib]QGTFTSDK([γGlu-γGlu-Palmitoyl])SKYLD[Aib]RAAQDFVQWLKDGRG-NH2
modifications: N-terminus assumed
SMILES: CCCCCCCCCCCCCCCC(=O)N[C@@H](CCC(=O)N[C@@H](CCC(=O)NCCCC[C@H](NC(=O)[C@H](CC(=O)O)NC(=O)[C@H](CO)NC(=O)[C@@H](NC(=O)[C@H](Cc1ccccc1)NC(=O)[C@@H](NC(=O)CNC(=O)[C@H](CCC(N)=O)NC(=O)C(C)(C)NC(=O)[C@@H](N)Cc1c[nH]cn1)[C@@H](C)O)[C@@H](C)O)C(=O)N[C@@H](CO)C(=O)N[C@@H](CCCCN)C(=O)N[C@@H](Cc1ccc(O)cc1)C(=O)N[C@@H](CC(C)C)C(=O)N[C@@H](CC(=O)O)C(=O)NC(C)(C)C(=O)N[C@@H](CCCNC(=N)N)C(=O)N[C@@H](C)C(=O)N[C@@H](C)C(=O)N[C@@H](CCC(N)=O)C(=O)N[C@@H](CC(=O)O)C(=O)N[C@@H](Cc1ccccc1)C(=O)N[C@H](C(=O)N[C@@H](CCC(N)=O)C(=O)N[C@@H](Cc1c[nH]c2ccccc12)C(=O)N[C@@H](CC(C)C)C(=O)N[C@@H](CCCCN)C(=O)N[C@@H](CC(=O)O)C(=O)NCC(=O)N[C@@H](CCCNC(=N)N)C(=O)NCC(N)=O)C(C)C)C(=O)O)C(=O)O
B6: peptide of SEQ ID NO: 20 (peptide)
peptide: [Desaminohistidyl][dS]QGTFTSDK([γGlu-Palmitoyl])SKYLDERAAQDFVQWLLDT-NH2
SMILES: CCCCCCCCCCCCCCCC(=O)N[C@@H](CCC(=O)NCCCC[C@H](NC(=O)[C@H](CC(=O)O)NC(=O)[C@H](CO)NC(=O)[C@@H](NC(=O)[C@H](Cc1ccccc1)NC(=O)[C@@H](NC(=O)CNC(=O)[C@H](CCC(N)=O)NC(=O)[C@@H](CO)NC(=O)CCc1c[nH]cn1)[C@@H](C)O)[C@@H](C)O)C(=O)N[C@@H](CO)C(=O)N[C@@H](CCCCN)C(=O)N[C@@H](Cc1ccc(O)cc1)C(=O)N[C@@H](CC(C)C)C(=O)N[C@@H](CC(=O)O)C(=O)N[C@@H](CCC(=O)O)C(=O)N[C@@H](CCCNC(=N)N)C(=O)N[C@@H](C)C(=O)N[C@@H](C)C(=O)N[C@@H](CCC(N)=O)C(=O)N[C@@H](CC(=O)O)C(=O)N[C@@H](Cc1ccccc1)C(=O)N[C@H](C(=O)N[C@@H](CCC(N)=O)C(=O)N[C@@H](Cc1c[nH]c2ccccc12)C(=O)N[C@@H](CC(C)C)C(=O)N[C@@H](CC(C)C)C(=O)N[C@@H](CC(=O)O)C(=O)N[C@H](C(N)=O)[C@@H](C)O)C(C)C)C(=O)O
B7: peptide of SEQ ID NO: 26 (peptide)
peptide: H[Aib]QGTFTSDK([γGlu-γGlu-Palmitoyl])SKYLD[Aib]RAAQDFVQWLK[Aib]GRG-NH2
modifications: N-terminus assumed
SMILES: CCCCCCCCCCCCCCCC(=O)N[C@@H](CCC(=O)N[C@@H](CCC(=O)NCCCC[C@H](NC(=O)[C@H](CC(=O)O)NC(=O)[C@H](CO)NC(=O)[C@@H](NC(=O)[C@H](Cc1ccccc1)NC(=O)[C@@H](NC(=O)CNC(=O)[C@H](CCC(N)=O)NC(=O)C(C)(C)NC(=O)[C@@H](N)Cc1c[nH]cn1)[C@@H](C)O)[C@@H](C)O)C(=O)N[C@@H](CO)C(=O)N[C@@H](CCCCN)C(=O)N[C@@H](Cc1ccc(O)cc1)C(=O)N[C@@H](CC(C)C)C(=O)N[C@@H](CC(=O)O)C(=O)NC(C)(C)C(=O)N[C@@H](CCCNC(=N)N)C(=O)N[C@@H](C)C(=O)N[C@@H](C)C(=O)N[C@@H](CCC(N)=O)C(=O)N[C@@H](CC(=O)O)C(=O)N[C@@H](Cc1ccccc1)C(=O)N[C@H](C(=O)N[C@@H](CCC(N)=O)C(=O)N[C@@H](Cc1c[nH]c2ccccc12)C(=O)N[C@@H](CC(C)C)C(=O)N[C@@H](CCCCN)C(=O)NC(C)(C)C(=O)NCC(=O)N[C@@H](CCCNC(=N)N)C(=O)NCC(N)=O)C(C)C)C(=O)O)C(=O)O

Tests used:
Assay in all cases: cell-based or functional assay
GIP receptor = target: T1, GIP receptor (UniProt P48546 22-466)
T1 sequence (looked up): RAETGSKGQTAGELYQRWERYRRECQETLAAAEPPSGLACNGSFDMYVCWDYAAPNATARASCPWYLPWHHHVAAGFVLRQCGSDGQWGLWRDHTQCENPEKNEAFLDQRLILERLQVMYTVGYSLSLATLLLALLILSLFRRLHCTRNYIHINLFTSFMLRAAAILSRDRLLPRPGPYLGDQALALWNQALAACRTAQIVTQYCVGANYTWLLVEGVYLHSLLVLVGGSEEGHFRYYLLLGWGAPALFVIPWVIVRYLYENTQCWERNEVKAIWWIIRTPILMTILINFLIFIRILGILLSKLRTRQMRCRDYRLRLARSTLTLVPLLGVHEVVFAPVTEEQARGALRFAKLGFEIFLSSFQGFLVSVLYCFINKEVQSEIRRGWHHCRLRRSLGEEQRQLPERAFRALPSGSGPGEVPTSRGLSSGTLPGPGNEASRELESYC

glucagon receptor = glucagon receptor (UniProt P47871 26-477, limits assumed)
GLP-1 receptor = GLP-1 receptor (UniProt P43220 24-463, limits assumed)

glucagon receptor, sequence (P47871 26-477 limits assumed): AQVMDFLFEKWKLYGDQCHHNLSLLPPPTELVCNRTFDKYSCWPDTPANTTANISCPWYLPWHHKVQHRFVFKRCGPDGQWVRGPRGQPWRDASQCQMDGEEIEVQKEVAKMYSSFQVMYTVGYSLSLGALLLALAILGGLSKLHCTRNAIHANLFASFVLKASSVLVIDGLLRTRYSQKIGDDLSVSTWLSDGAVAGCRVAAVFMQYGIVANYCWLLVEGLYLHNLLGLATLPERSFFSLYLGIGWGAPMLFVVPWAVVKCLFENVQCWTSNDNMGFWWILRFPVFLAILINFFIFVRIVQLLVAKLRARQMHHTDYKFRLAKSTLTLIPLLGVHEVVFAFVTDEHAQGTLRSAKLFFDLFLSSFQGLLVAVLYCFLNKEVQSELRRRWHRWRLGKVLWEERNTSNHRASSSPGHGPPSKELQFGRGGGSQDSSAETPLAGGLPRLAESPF

Binder	EC50 (nM) at GIP receptor (GIP receptor) [nM]	EC50 (nM) at glucagon receptor (glucagon receptor) [nM]	EC50 (nM) at GLP-1 receptor (GLP-1 receptor) [nM]
B1	2.37	0.005	0.002
B2	2.36	0.035	0.003
B3	4.5	0.005	0.009
B4	1.58	0.023	0.004
B5	1.46	0.021	0.004
B6	1.38	0.006	0.004
B7	3.29	0.106	0.004

From patent US20140206607A1 (INDIANA UNIVERSITY RESEARCH AND TECHNOLOGY, published 2014)
